Usually Kd stands for a measure of binding affinity in units of concentration.

Consider six molecules from patent US20230272114A1 (published 2023).

The target in assay [1] is S267E. Briefly: Biacore SPR.
Assay [2] addresses T1, Fc region of IgE (UniProt P01854 105-428).
T1 chain: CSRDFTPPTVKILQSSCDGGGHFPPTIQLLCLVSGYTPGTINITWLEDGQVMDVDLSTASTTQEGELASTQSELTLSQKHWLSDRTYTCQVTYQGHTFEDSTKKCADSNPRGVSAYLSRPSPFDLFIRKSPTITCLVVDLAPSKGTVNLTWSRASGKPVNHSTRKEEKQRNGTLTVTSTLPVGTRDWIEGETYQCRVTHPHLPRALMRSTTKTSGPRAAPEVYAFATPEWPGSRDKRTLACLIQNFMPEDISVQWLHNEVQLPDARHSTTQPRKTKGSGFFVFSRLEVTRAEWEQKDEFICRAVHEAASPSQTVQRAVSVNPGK
Briefly: Biacore. Background: Surface plasmon resonance follows binding to a sensor surface in real time, without labels.

The target of assay [3] is T2, recombinant human FcγRIIb protein (R&D Systems) (human, UniProt P31994 46-217).
T2 chain: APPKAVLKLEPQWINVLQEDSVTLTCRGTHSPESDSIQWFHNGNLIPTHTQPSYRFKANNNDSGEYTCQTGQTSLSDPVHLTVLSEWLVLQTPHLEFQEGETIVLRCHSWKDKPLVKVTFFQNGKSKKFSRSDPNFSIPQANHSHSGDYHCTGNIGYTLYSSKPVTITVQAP
Briefly: Biacore SPR.

B1: FcγRI (receptor)
chain: QVDTTKAVITLQPPWVSVFQEETVTLHCEVLHLPGSSSTQWFLNGTATQTSTPSYRITSASVNDSGEYRCQRGLSGRSDPIQLEIHRGWLLLQVSSRVFTEGEPLALRCHAWKDKLVYNVLYYRNGKAFKFFHWNSNLTILKTNISHNGTYHCSGMGKHRYTSAGISVTVKELFPAPVLNASVTSPLLEGNLVTLSCETKLLLQRPGLQLYFSFYMGSKTLRGRNTSSEYQILTARREDSGLYWCEAATEDGNVLKRSPELELQVLGLQLPTP
For B1, in assay [1], the dissociation constant Kd is 0.26 nM.

B2: MaE11_H1L1_IgG1_S267E/L328F (antibody)
chain 1: not shown
chain 2: DIQLTQSPSSLSASVGDRVTITCRASQSVDYDGDSYMNWYQQKPGQPPKLLIYAASYLGSEIPARFSGSGSGTDFTLTISSLQPEDFATYYCQQSHEDPYTFGAGTKLEIKRTVAAPSVFIFPPSDEQLKSGTASVVCLLNNFYPREAKVQWKVDNALQSGNSQESVTEQDSKDSTYSLSSTLTLSKADYEKHKVYACEVTHQGLSSPVTKSFNRGEC
In the case of B2, the figures for the Kd in assay [2] and in assay [3] were 0.063 nM and 5.6 nM, respectively.

B3: MaE11_H1L1_IgG1_WT (antibody)
chain 1: not shown
chain 2: DIQLTQSPSSLSASVGDRVTITCRASQSVDYDGDSYMNWYQQKPGQPPKLLIYAASYLGSEIPARFSGSGSGTDFTLTISSLQPEDFATYYCQQSHEDPYTFGAGTKLEIKRTVAAPSVFIFPPSDEQLKSGTASVVCLLNNFYPREAKVQWKVDNALQSGNSQESVTEQDSKDSTYSLSSTLTLSKADYEKHKVYACEVTHQGLSSPVTKSFNRGEC
For B3, the equilibrium dissociation constant (Kd) came out at 0.061 nM in assay [2] and 2000 nM in assay [3].

B4: MaE11_H1L1_IgG1_G236R/L328R (antibody)
chain 1: not shown
chain 2: DIQLTQSPSSLSASVGDRVTITCRASQSVDYDGDSYMNWYQQKPGQPPKLLIYAASYLGSEIPARFSGSGSGTDFTLTISSLQPEDFATYYCQQSHEDPYTFGAGTKLEIKRTVAAPSVFIFPPSDEQLKSGTASVVCLLNNFYPREAKVQWKVDNALQSGNSQESVTEQDSKDSTYSLSSTLTLSKADYEKHKVYACEVTHQGLSSPVTKSFNRGEC
In assay [2], B4 gave an equilibrium dissociation constant (Kd) of 0.064 nM.

B5: H131 FcγRIIa (receptor)
chain: QAAAPPKAVLKLEPPWINVLQEDSVTLTCQGARSPESDSIQWFHNGNLIPTHTQPSYRFKANNNDSGEYTCQTGQTSLSDPVHLTVLSEWLVLQTPHLEFQEGETIMLRCHSWKDKPLVKVTFFQNGKSQKFSHLDPTFSIPQANHSHSGDYHCTGNIGYTLFSSKPVTITVQVPSMGSSSPMGHHHHHH
B5 showed a dissociation constant Kd in assay [1] of 960 nM.

B6: FcγRIIb (receptor)
chain: APPKAVLKLEPQWINVLQEDSVTLTCRGTHSPESDSIQWFHNGNLIPTHTQPSYRFKANNNDSGEYTCQTGQTSLSDPVHLTVLSEWLVLQTPHLEFQEGETIVLRCHSWKDKPLVKVTFFQNGKSKKFSRSDPNFSIPQANHSHSGDYHCTGNIGYTLYSSKPVTITVQAP
For B6, in assay [1], the Kd was 60 nM.
